Patent US12668611B2, “Cell-penetrating peptide and use thereof” (IMNEWRUN, INC., priority 2020, dated 2026)
Peptide text beside a SMILES is read from it.

Experiments:
C57BL/6 mice = experiment: Comparative analysis of in vivo blood-brain barrier (BBB) permeability (two-photon microscopy); design: species or system mouse; conditions: 15 mg/kg tail vein, imaging for 90 minutes; FIG. 5A-5F
Description: Specifically, in order to perform in vivo real-time imaging using a two photon microscopy, operations to install a cranial window were performed in living mice (C57BL/6). Before making the cranial window, inhalation anesthesia was induced with 3% isoflurane in the mice, and the body temperature of the mice was maintained at 36.5° C. to 37.5° C. by using a heating pad. After induction of anesthesia, the concentration of isoflurane was adjusted to 1.5% to maintain anesthesia. In addition, to confirm the degree of maintenance of anesthesia, heart rate and SpO2 were confirmed in real time. Afterwards, craniotomy was performed by using a dental drill in order that the cranial window has a diameter of 3 mm at the skull coordinates of ML, +2.5 mm, and AP, −1.5 mm. After the skull was removed by craniotomy, the brain was covered with a cover glass having a diameter of 4 mm, and the cover glass was adhered by using a cyanoacrylic bond. Next, a head frame, capable of fixing the mouse's head under a two-photon microscope, was attached so that the cover glass would come to the center. After a first bonding of the cover glass and the frame by using the bond, a second bonding was performed and all exposed skulls were covered from the border of the cover glass with dental resin so that imaging could be performed by using a water immersion lens. […]

[1] = system: hCMEC/D3 cells, which are human blood-brain barrier cells; experiment: In vitro cell permeability analysis (FITC fluorescence imaging, Cytation 5); assay type: cell-based; conditions: peptides linked to FITC, 4 μM, 2 hours, FIG. 1
Description: The present inventors performed in vitro cell permeability analysis on a total of 12 candidate peptides synthesized in Example 1 above. Specifically, hCMEC/D3 cells, which are human blood-brain barrier cells, were seeded in a 96-well plate at 18,000 cells/well, and incubated overnight at 37° C. under CO2 conditions in a endothelial cell growth medium (EGM), which is an […], until the cells reached 80% to 90% of the plate area. Subsequently, the 12 candidate peptides linked to FITC prepared in Example 1-2 and FITC alone, a negative control, were diluted in the medium to 4 μM to prepare an amount to be treated by 100 μl per well. Subsequently, the culture solution was removed from the cell culture plate by suction, and the peptide was diluted and treated with the solution prepared in advance, and then cultured at 37° C. under CO2 conditions for 2 hours. […] After incubation, DAPI and GFP fluorescence were image read by using a Cytation 5 equipment, and the cell nucleus was parcellated with DAPI by image processing. Subsequently, a value of 20 μM of FITC around the cell nucleus was measured, divided by DAPI to obtain a mean-FITC value, and the value was corrected with a value of FITC experimental group, a negative control group, to calculate permeability in the blood-brain barrier cells. […]

hCMEC/D3 cell line = experiment: Comparative analysis of cell permeation effect through flow cytometry; assay type: cell-based, human; conditions: 10 μM, 2 hours, p<0.0001, FIG. 4
Description: First, with respect to the transpep-1-FITC and angiopep-2-FITC prepared in Example 1-2, an amount of fluorescence inflow into a single cell was identified and quantified through flow cytometry. Specifically, an hCMEC/D3 cell line was aliquoted at 15,000 cells/well using an EGM culture medium containing 2% bovine calf serum (BCS), and 24 hours later, cells were treated with each of the two peptides at a concentration of 10 μM, and then were incubated for 2 hours at 37° C., under CO2 conditions. Thereafter, the cells were washed with 1×PBS, and then were separated from the bottom of the plate by incubating for 3 minutes after 1.1% trypsinase-EDTA (TE) was added, and then an EGM cell culture solution of about 3 times the amount of TE was added, and the sample was centrifuged at 100 rpm for 5 minutes. Next, the supernatant was removed by suction, and the cells were resuspended in 250 μl of 1×PBS, and then transferred to a BD Falcon 12×75 mm Tube with Cell Strainer Cap, and inflow of fluorescence according to each peptide was analyzed by flow cytometry.

Compound | amount delivered to the extravascular area compared to angiopep-2-FITC (C57BL/6 mice) | fluorescence in the intravascular region (in vivo stability) compared to angiopep-2-FITC (C57BL/6 mice) | cell permeability (FITC fluorescence) [1] | fluorescence intensity (inflow into single cell) compared to angiopep-2-FITC (hCMEC/D3 cell line)
CC(C)C[C@H](NC(=O)[C@H](CCCNC(=N)N)NC(=O)[C@H](CCC(=O)O)NC(=O)[C@H](Cc1c[nH]cn1)NC(=O)[C@H](Cc1c[nH]cn1)NC(=O)CNC(=S)Nc1ccc2c(c1)C(=O)OC21c2ccc(O)cc2Oc2cc(O)ccc21)C(=O)N[C@@H](CCCCN)C(=O)N[C@@H](CO)C(=O)N[C@@H](CC(=O)O)C(=O)N[C@@H](CCC(=O)O)C(=O)N[C@@H](Cc1c[nH]c2ccccc12)C(=O)N[C@@H](CO)C(=O)N[C@H](C(=O)N[C@H](C(=O)N[C@@H](CO)C(=O)NCC(=O)O)[C@@H](C)O)C(C)C [transpep-1-FITC] (HELM PEPTIDE1{[O=C1OC2(c3ccc(O)cc3Oc3cc(O)ccc32)c2ccc(NC(=S)[*:2])cc21].G.H.H.E.R.L.K.S.D.E.W.S.V.T.S.G}$$$$V2.0) | greater | higher in vivo stability | – | –
GHHERLKSDEWSVTSG (transpep-1) | – | – | confirmed to have cell permeability | significantly higher
